How the values were obtained:
crystal structure = biological target: the molecule itself; assay: crystal structure
SEC-MALS = biological target: the molecule itself; assay: SEC-MALS

B1: ROCext surface engineered mutant (KA), K1460A and K1463A (domain or fragment, human, UniProt Q5S007 1329-1520, looked up)
chain: AVPYNRMKLMIVGNTGSGKTTLLQQLMKTKKSDLGMQSATVGIDVKDWPIQIRDKRKRDLVLNVWDFAGREEFYSTHPHFMTQRALYLAVYDLSKGQAEVDAMKPWLFNIKARASSSPVILVGTHLDVSDEAQRAACMSKITKELLNKRGFPAIRDYHFVNATEESDALAKLRKTIINESLNFKIRDQLVVG
stoichiometry N (crystal structure): 2

B2: ROCext, wild-type GTPase (ROC) domain of human LRRK2, residues 1329-1520 (domain or fragment, UniProt Q5S007 1329-1520, looked up)
chain: AVPYNRMKLMIVGNTGSGKTTLLQQLMKTKKSDLGMQSATVGIDVKDWPIQIRDKRKRDLVLNVWDFAGREEFYSTHPHFMTQRALYLAVYDLSKGQAEVDAMKPWLFNIKARASSSPVILVGTHLDVSDEKQRKACMSKITKELLNKRGFPAIRDYHFVNATEESDALAKLRKTIINESLNFKIRDQLVVG
stoichiometry N (SEC-MALS): 2

— publication doi:10.1101/676627 (bioRxiv, 2019)
